From publication PMC4963475 (2016)
Non-standard residues stand in square brackets, D forms with d. No end group written: not given here. pT = C[C@@H](OP(=O)(O)O)[C@H](N)C(=O)O; Nle = CCCC[C@H](N)C(=O)O

Tests used:
[1] = target: Bub1(1–553)/Bub3 complex (3×FLAG–Bub1(1–553) with untagged Bub3) (UniProt O43683 1-553; O43684 1-328); assay: MST
[2] = target: T1, BubR1/Bub3 complex (3×FLAG–BubR1 with untagged Bub3) (UniProt O60566 1-1050; O43684 1-328); assay: MST
[3] = target: T1, BubR1/Bub3 complex (3×FLAG–BubR1 with …); assay: MST; 150 mM NaCl
[4] = target: T1, BubR1/Bub3 complex (3×FLAG–BubR1 with …); assay: MST; 200 mM NaCl
[5] = target: T1, BubR1/Bub3 complex (3×FLAG–BubR1 with …); assay: MST; 0 mM NaCl
[6] = target: T1, BubR1/Bub3 complex (3×FLAG–BubR1 with …); assay: MST; 50 mM NaCl

T1 sequence (O60566 whole entry, chain 1 of 2): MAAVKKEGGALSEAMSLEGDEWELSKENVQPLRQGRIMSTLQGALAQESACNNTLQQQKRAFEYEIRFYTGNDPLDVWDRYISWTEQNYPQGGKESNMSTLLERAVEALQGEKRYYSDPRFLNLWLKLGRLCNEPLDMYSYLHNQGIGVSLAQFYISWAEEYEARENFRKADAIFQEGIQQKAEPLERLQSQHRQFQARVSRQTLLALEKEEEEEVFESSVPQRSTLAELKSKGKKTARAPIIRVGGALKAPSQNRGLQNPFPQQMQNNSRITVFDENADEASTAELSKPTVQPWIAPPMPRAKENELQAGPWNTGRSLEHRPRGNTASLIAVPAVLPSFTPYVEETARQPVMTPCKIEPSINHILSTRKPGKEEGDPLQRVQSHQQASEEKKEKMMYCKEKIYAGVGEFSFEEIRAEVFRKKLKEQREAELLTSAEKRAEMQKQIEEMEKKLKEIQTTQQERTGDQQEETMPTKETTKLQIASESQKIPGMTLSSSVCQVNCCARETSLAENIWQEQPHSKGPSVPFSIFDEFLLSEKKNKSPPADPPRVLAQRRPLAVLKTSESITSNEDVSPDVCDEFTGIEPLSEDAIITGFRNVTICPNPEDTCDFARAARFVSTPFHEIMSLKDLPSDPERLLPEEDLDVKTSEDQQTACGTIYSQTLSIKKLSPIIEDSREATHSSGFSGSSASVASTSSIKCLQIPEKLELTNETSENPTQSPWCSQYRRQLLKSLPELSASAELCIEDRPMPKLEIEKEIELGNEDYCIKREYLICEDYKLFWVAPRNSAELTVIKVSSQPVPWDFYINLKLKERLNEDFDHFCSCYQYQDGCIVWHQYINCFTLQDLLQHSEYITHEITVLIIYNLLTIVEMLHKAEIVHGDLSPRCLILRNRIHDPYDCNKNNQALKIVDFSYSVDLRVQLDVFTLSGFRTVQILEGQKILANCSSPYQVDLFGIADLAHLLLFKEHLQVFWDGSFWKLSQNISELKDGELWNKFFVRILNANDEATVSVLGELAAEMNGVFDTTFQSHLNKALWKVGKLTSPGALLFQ
T1 sequence (O43684 whole entry, chain 2 of 2): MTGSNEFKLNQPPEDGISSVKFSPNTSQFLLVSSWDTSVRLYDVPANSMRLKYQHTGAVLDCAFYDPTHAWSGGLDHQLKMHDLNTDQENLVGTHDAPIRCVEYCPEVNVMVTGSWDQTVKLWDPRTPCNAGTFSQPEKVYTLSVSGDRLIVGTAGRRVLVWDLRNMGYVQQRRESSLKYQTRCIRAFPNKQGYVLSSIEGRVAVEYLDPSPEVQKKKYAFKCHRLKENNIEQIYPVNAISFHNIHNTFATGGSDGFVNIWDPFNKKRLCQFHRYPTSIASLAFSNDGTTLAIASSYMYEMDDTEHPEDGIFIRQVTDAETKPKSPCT
Bub1(1–553)/Bub3 complex (3×FLAG–Bub1(1–553) with untagged Bub3), sequence (O43683 1-553, chain 1 of 2): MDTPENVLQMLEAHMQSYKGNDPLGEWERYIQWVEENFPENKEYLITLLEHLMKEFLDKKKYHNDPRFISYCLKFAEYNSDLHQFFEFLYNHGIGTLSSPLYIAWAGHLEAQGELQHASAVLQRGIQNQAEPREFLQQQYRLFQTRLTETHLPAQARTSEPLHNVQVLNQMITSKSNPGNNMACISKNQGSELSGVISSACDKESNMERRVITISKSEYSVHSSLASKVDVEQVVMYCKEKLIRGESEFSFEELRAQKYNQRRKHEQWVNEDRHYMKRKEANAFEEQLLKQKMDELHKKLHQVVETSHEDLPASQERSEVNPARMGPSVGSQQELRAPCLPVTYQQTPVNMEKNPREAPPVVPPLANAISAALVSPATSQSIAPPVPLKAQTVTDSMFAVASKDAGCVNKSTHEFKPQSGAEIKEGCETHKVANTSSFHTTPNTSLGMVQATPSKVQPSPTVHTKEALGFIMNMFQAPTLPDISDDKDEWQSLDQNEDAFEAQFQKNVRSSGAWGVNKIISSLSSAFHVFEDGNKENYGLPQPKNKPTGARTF
Bub1(1–553)/Bub3 complex (3×FLAG–Bub1(1–553) with untagged Bub3), sequence (O43684 whole entry, chain 2 of 2): as the sequence (O43684 whole entry, chain 2 of 2) above

| Binder | Kd [1] [nM] | Kd [2] [nM] | Kd [3] [nM] | Kd [4] [nM] | Kd [5] [nM] | Kd [6] [nM] |
| --- | --- | --- | --- | --- | --- | --- |
| ENHKND[Nle]DI[pT]QSC[Nle]VEIDY-NH2 (N-terminus assumed; SMILES CCCC[C@H](NC(=O)[C@H](CC(=O)O)NC(=O)[C@H](CC(N)=O)NC(=O)[C@H](CCCCN)NC(=O)[C@H](Cc1c[nH]cn1)NC(=O)[C@H](CC(N)=O)NC(=O)[C@@H](N)CCC(=O)O)C(=O)N[C@@H](CC(=O)O)C(=O)N[C@H](C(=O)N[C@H](C(=O)N[C@@H](CCC(N)=O)C(=O)N[C@@H](CO)C(=O)N[C@@H](CS)C(=O)N[C@@H](CCCC)C(=O)N[C@H](C(=O)N[C@@H](CCC(=O)O)C(=O)N[C@H](C(=O)N[C@@H](CC(=O)O)C(=O)N[C@@H](Cc1ccc(O)cc1)C(N)=O)[C@@H](C)CC)C(C)C)[C@@H](C)OP(=O)(O)O)[C@@H](C)CC) [MELT16p peptide, ENHKND-NIe-DI-Tp-QSC-NIe-VEIDY-amide] | 757 | 286 |  |  |  |  |
| EDDKNDMDITKSYTIEIN (N-terminal Btn-PEG2-C-PEG2 (biotin, PEG2, cysteine, PEG2); Nle (norleucine) at position 7 of the letters, written here as M; phosphothreonine (Tp) at position 10 of the letters (MDIT); C-terminal amide) [MELT12p peptide (MDIT phosphorylated), Btn-PEG2-C-PEG2-EDDKND-Nle-DI-Tp-KSYTIEIN-amide] | 579 | 258 | 379 | 936 | 82 | 259 |
| EDDKNDMDITKSYTIEIN (N-terminal Btn-PEG2-C-PEG2 (biotin, PEG2, cysteine, PEG2); Nle (norleucine) at position 7 of the letters, written here as M; C-terminal amide) [MELT12 peptide (unphosphorylated), Btn-PEG2-C-PEG2-EDDKND-Nle-DI-T-KSYTIEIN-amide] | > 379000 | > 195000 |  |  |  |  |
